Data as given in patent publication US20170096478A1, “THERAPEUTIC AGENT FOR INFLAMMATORY DISEASE” (Josai University Corporation, priority 2012, published 2017).

Key:
[1] = system: renal ischemia reperfusion injury; assay: Test Example 9: acute renal failure due to renal ischemia reperfusion injury, check test 1; assay type: in vivo, male Wistar rat; conditions: autopsy after the end of the test; vs control group
Procedure: Right kidney was removed from male Wistar rat (n=4) under general anesthesia, and then left kidney of the rat was subjected to ischemia reperfusion with vascular clip to prepare a model. For SSV mAb-administered group, SSV mAb was then administered in an amount of 10 mg/kg 30 minutes before preparing the model and immediately after the reperfusion For control group, IgG (SIGMA) was administered in place of SSV mAb in the same manner. Then, urea nitrogen (BUN) and creatinine (Cr) in serum at 24 hours after preparing the model were measured and the nephropathy level was evaluated. Further, the rats were subjected to autopsy after the end of the test, and histological evaluation was performed.

[2] = system: lipopolysaccharide (LPS)-induced lethal sepsis; assay: Test Example 8-2: histone concentration in serum and inflammatory tissue (lung); assay type: in vivo, BALB/c mice
Procedure: (§1) BALB/c mice (bodyweight of 20 g to 30 g when starting the experiments, n=10) were raised in a plastic cage under SPF and thermo-hydrostat (22±1° C., 55±5%) conditions under 12-hour light-dark cycle. Foods and water were supplied ad libitum. Then, by intraperitoneally administering LPS to the mice at a dose of 40 mg/kg, lipopolysaccharide (LPS)-induced lethal sepsis as an inflammatory disease was induced in the same manner as Test Example 7. SSV mAb dissolved in physiological saline was intraperitoneally administered totally 3 times, i.e., at 30 minutes before, 6 hours after and 12 hours after the intraperitoneal administration of LPS, in an amount of 100 μg/dose in terms of the amount of SSV mAb. The survival of the animals thereafter was tested. To the control group, IgG (SIGMA) dissolved in physiological saline was administered in place of SSV mAb in the same manner.
In Test Example 8, heart-derived blood or lung tissue was obtained from control group and SSV mAb-administered group under general anesthesia according to the method conducted by Hasegawa et al. (Surg Res. 2012 May 1; 174(1):136-41.). The concentration of histone H1, histone H3 and H4 of the obtained samples were measured by using a commercially available measurement kit using ELISA.

histone H1 = assay: ELISA affinity for histone H1; assay type: binding; conditions: absorbance at 405 nm; 5 μg/mL antibody; compared among histones
Procedure: The Affinities between histone H1 or core histone and SSVmAb were determined by ELISA.
A 96 well microplate was coated with histone H1, H2A, H2B, H3 or H4. Each histone used was dissolved in 100 mM sodium carbonate buffer (pH 9.3). The plate was washed with PBS-tween 20 (0.05%), and blocked with 3% skim milk and 1% BSA for 1 hour. To each well, 5 μg/mL SSVmAb was added, and incubated for 1 hour. Bound SSVmAb was detected using peroxidase (HRP) conjugated anti mouse IgG1 Ab (SIGMA), and incubated for 1 hour. Bound SSVmAb was detected using the ABTS [2,2′-azino-bis(3-ethylbenzothiazoline-sulfonic acid)] substrate solution, and absorbance at 405 nm was measured using Multiskan Ascent (Thermo Fisher Scientific Inc., Waltham, Mass.).
After the end of the tests, binding assays of SSV mAb with histone H1, histone H3 and histone H4 were carried out by ELISA in the same manner as Test Example 2.

[3] = system: lipopolysaccharide (LPS)-induced lethal sepsis; assay: Test Example 7: survival in LPS-induced lethal sepsis; assay type: in vivo, BALB/c mice
Procedure: as §1, with “n=6)” for “n=10)”, “Lipopolysaccharide (LPS)-induced lethal sepsis which is generally employed as an experimental sepsis model was induced” for “Then,”, “LPS” for “LPS to the mice”, “mg/kg.” for “mg/kg, lipopolysaccharide (LPS)-induced lethal sepsis as an inflammatory disease was induced in the same manner as Test Example 7.”

B1: SSV mAb: monoclonal antibody (IgG1) produced by Mouse-Mouse hybridoma SSV-C 93-3 (NITE BP-972), raised against peptide … (SEQ ID NO:1)-KLH conjugate (antibody, V domains shown)
VH: EIQLQQSGAELVKPGASVKISCKASGYSFTGYNMNWVKQSHGKSLEWIGNINPYYGSTSYNQKFKGKATLTVDKSSSTAYMQLNSLTSEDSAVYYCARSPYYSNYWRYFDYWGQGTTLTVSS
VL: QIVLSQSPAILSASPGEKVTMTCRASSSVSYMHWYQQKPGSSPKPWIYATSNLASGVPARFSGSGSGTSYSLTISRVEAEDAATYYCQQWSSNPWTFGGGTKLEIK
histological evaluation of kidney [1]: better than that of the control group | concentration of histone H3 in blood sample ([2]; FIG. 10A, vs control group): lower than the control group | concentration of histone H3 in inflammatory tissue (lung) ([2]; FIG. 10B, vs control group): lower than the control group | concentration of histone H1 in blood sample ([2]; serum, during the test): almost kept constant without increase | concentration of histone H3 in blood sample ([2]; stated under the histone H4 results, FIG. 11A, vs control group): tend to be lower than the control group | concentration of histone H3 in inflammatory tissue (lung) ([2]; stated under the histone H4 results, FIG. 11B, vs control group): tend to be lower than the control group | concentration of histone H1 in inflammatory tissue (lung) ([2]; vs control group): more significantly decreased than that from the control group | affinity for histone H1 (ELISA) (histone H1): binding capacity | cumulative survival rate ([3]; 70 hours after administration of LPS): 0.7 | survival rate ([3]; 70 hours after administration of LPS 40 mg/kg i.p., 100 μg/dose i.p. 3 times): 70% | survival rate relative to that of the control group ([3]; 70 hours after administration of LPS, p<0.05): about 3.5 times
